{"source": "patent US20200207859A1", "about": "(priority 2017, published 2020)", "molecules": {"B1": {"name": "anti-CD74 (antibody, V domains shown)", "VH": "QVQLVESGGGVVQPGRSLRLSCAASGFNFSDYGMHWVRQAPGKGLEWVAVIWYDGSISYYADSVKGRFTISRDNSKNTLYLQMNSLRAEDTAVYYCARGGTVEHGAVYGTDVWGQGTTVTVSS", "VL": "DIQMTQSPSSVSASVGDRVTITCRASQGIGSWLAWYQQKPGKAPKLLIYAADRLQSGVPSRFSGSGSGTDFTLTISSLQPEDFATYYCQQYHTYPLTFGGGTKVEIK", "modifications": "non-natural residues"}}, "assay_in_all_cases": "Cell binding assay (FACS), anti-CD74 antibody without conjugation", "key": {"CD74 [1]": {"target": "T1, CD74 (Homo sapiens, UniProt P04233)", "T1 construct": "endogenous in cells; host or cells: B-lymphoma, multiple myeloma and leukemia cell lines", "T1 sequence (P04233 1-296)": "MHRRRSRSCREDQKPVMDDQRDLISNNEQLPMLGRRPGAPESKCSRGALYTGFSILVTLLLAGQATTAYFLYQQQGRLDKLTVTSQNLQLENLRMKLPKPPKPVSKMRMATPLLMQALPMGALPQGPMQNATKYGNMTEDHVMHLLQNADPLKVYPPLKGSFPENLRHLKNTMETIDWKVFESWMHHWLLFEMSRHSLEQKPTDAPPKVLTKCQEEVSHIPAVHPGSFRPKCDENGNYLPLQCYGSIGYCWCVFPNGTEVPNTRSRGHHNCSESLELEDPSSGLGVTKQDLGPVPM", "set-up": "key: NK = no killing; NB = no binding", "description": "(§1) Cell lines were maintained in RPMI, high glucose (Cellgro-Mediatech; Manassas, Va.) supplemented with 20% heat-inactivated fetal bovine serum (Hyclone; Thermo Scientific; Waltham, Mass.), 2 mM glutamax (Invitrogen; Carlsbad, Calif.) and 1× Pencillin/streptomycin (Cellgro-Mediatech; Manassas, Va.). Cells were harvested and re-suspended in FACS buffer (DPBS buffer supplemented with 1% bovine serum albumin). […] Cells were washed twice with ice-cold FACS buffer and incubated with 5 ug/ml Alexa 647 labeled donkey anti-human IgG antibody (Jackson Immune-Research) on ice for another 60 mins. Unstained cells and cells stained with secondary antibody alone were used as controls. Samples were then washed twice using FACS buffer and analyzed using a BD FACS Canto system. Mean fluorescence intensities were fitted using non-linear regression analysis with one site specific binding equation on GraphPad Prism. Data was expressed as geometric mean fluorescent intensity vs. antibody concentration in nM."}, "CD74 [2]": {"target": "T1, CD74", "description": "as §1"}, "CD74 [3]": {"target": "T1, CD74", "set-up": "unit: geometric MFI", "description": "as §1"}}, "data": [{"molecule": "B1", "values": [{"measurement": "Cell Binding Bmax", "setting": "CD74 [1]; K562 (CML) cells", "result": "NB"}, {"measurement": "Cell Binding Bmax", "setting": "CD74 [1]; OPM-2 (MM) cells", "result": "NB"}, {"measurement": "Kd", "setting": "CD74 [2]; ARD (MM) cells", "result": 2.6, "unit": "nM"}, {"measurement": "Kd", "setting": "CD74 [2]; BDCM (AML) cells", "result": 4.5, "unit": "nM"}, {"measurement": "Kd", "setting": "CD74 [2]; JVM-13 (CLL) cells", "result": 2.5, "unit": "nM"}, {"measurement": "Kd", "setting": "CD74 [2]; RPMI-6666 (HL) cells", "result": 2.3, "unit": "nM"}, {"measurement": "Kd", "setting": "CD74 [2]; RPMI-8226 (MM) cells", "result": 3.6, "unit": "nM"}, {"measurement": "Kd", "setting": "CD74 [2]; SU-DHL-6 (NHL) cells", "result": 2, "unit": "nM"}, {"measurement": "Kd", "setting": "CD74 [2]; SUP-B15 (ALL) cells", "result": 3.5, "unit": "nM"}, {"measurement": "Cell Binding Bmax", "setting": "CD74 [3]; ARD (MM) cells", "result": 190}, {"measurement": "Cell Binding Bmax", "setting": "CD74 [3]; ARP-1 (MM) cells", "result": 341}, {"measurement": "Cell Binding Bmax", "setting": "CD74 [3]; BDCM (AML) cells", "result": 3059}, {"measurement": "Cell Binding Bmax", "setting": "CD74 [3]; JVM-13 (CLL) cells", "result": 447}, {"measurement": "Cell Binding Bmax", "setting": "CD74 [3]; RPMI-6666 (HL) cells", "result": 3879}, {"measurement": "Cell Binding Bmax", "setting": "CD74 [3]; RPMI-8226 (MM) cells", "result": 119}, {"measurement": "Cell Binding Bmax", "setting": "CD74 [3]; SU-DHL-6 (NHL) cells", "result": 1565}, {"measurement": "Cell Binding Bmax", "setting": "CD74 [3]; SUP-B15 (ALL) cells", "result": 680}]}]}
